Two molecules from patent US20140248635A1, “ALPHA-TUBULIN […]” (University of Georgia Research Foundation, Inc., priority 2010, published 2014) can be followed below.

In assay [1] the target is T1, K40 of α-tubulin (Tetrahymena MEC17-KO axonemes or tubulin) (Tetrahymena thermophila, UniProt P41351, K40R).
T1 construct: Total tubulin was purified from the MEC17-KO strain of Tetrahymena; endogenous in cells; host or cells: Tetrahymena MEC17-KO strain (axonemes from cilia, or DEAE-purified tubulin)
The experiment in a line: In vitro tubulin acetyltransferase assay: activity of MEC-17 enzyme preparations. It counts as biochemical. The note with it: pan acetyl-K antibodies. The source says: (§1) To disrupt the MEC-17 gene in Tetrahymena, we used homologous DNA recombination with a fragment carrying the neo4 marker that replaced the coding region. MEC-17 was overexpressed in Tetrahymena using the MTT1 cadmium-dependent promoter. In C. elegans, MEC-12-K40, MEC-12-Q40, and MEC-12-R40 transgenes were introduced into a single site on chromosome II in the EG4322 strain. Animals homozygous for a MEC-12 transgene and homozygous for the mec-12(e1607) allele were obtained by standard crosses. All touch sensation assays in C. elegans were done using blind scoring. To deplete human MEC-17 (C6Orf134) mRNA in Hela cells, we introduced MEC-17-specific siRNAs (ON-TARGETplus pool, Dharmacon) using Oligofectamine (Invitrogen). To knockdown mec17 expression in zebrafish, MOs designed to target the MEC-17 mRNA (Open Biosystems) were injected into early embryos. ATG-MEC17 MO targets the translation initiation site of mec17 mRNA. SP-MEC17 MO targets the exon3/intron3-4 splice junction, and is expected to result in an aberrant splicing isoform of exon2 to exon 4, producing a frameshift mutation and associated protein truncation. As a negative control, we injected MO with a random sequence (oligo-25N, Gene Tools) or a 5 bp mismatch to the ATG-MEC17 MO. Live embryos were scored for phenotypes at 48 hpf. To produce a recombinant MEC-17 protein, the cDNA sequence of the murine MEC-17 (BF135007, Open Biosystems) was subcloned into pGEX-3× plasmid (GE Healthcare), expressed in BL21 E. coli cells as a GST fusion and purified using GST-Bind kit (Novagen). The in vitro acetylation assays were performed in 50 mM Tris-HCl pH 8.0, […], 0.1 mM EDTA, with purified Tetrahymena MEC-17-KO axonemes or tubulin (purified using DEAE chromatography), recombinant GST-MmMEC-17 enzyme and 10 μM acetyl-CoA. The reaction was detected by western blotting using anti-acetyl-K antibodies.
(§2) To prepare MEC 17-KO axonemes, Tetrahymena cells were grown to the mid-log phase and deciliated by pH shock (Wloga et al., 2008 Eukaryot Cell 7:1362-1372). Cilia were suspended in 1 ml of 1% NP-40 in the axoneme buffer (30 mM HEPES, 20 mM potassium acetate, 5 mM MgSO4, 0.5 mM EDTA, pH 7.6) with Complete protease inhibitors (Roche). After 1-2 min on ice, axonemes were collected by centrifugation (20,000×g, 15 min, 4° C.), suspended in the in vitro acetylation reaction buffer (50 mM Tris HCl, pH 8.0, 10% glycerol, 0.1 mM EDTA, 1 mM DTT) with protease inhibitors and stored at −80° C.
(§3) Total tubulin was purified from the MEC17-KO strain of Tetrahymena using a protocol modified after Yakovich and colleagues (Yakovich et al., 2006 Exp Parasitol 114:289-296). […]

In assay [2] the target is T2, K40 of α-tubulin (Tetrahymena MEC17-KO axonemes or tubulin) (Tetrahymena thermophila, UniProt P41351).
T2 construct: Total tubulin was purified from the MEC17-KO strain of Tetrahymena; endogenous in cells; host or cells: Tetrahymena MEC17-KO strain (axonemes from cilia, or DEAE-purified tubulin)
The assay is described as above. It counts as biochemical. The note with it: for αTAT activity on MEC17-KO axonemes: with acetyl-CoA, western 6-11 B-1.
From the text: as §1, §2, §3

T2 sequence (P41351 whole entry): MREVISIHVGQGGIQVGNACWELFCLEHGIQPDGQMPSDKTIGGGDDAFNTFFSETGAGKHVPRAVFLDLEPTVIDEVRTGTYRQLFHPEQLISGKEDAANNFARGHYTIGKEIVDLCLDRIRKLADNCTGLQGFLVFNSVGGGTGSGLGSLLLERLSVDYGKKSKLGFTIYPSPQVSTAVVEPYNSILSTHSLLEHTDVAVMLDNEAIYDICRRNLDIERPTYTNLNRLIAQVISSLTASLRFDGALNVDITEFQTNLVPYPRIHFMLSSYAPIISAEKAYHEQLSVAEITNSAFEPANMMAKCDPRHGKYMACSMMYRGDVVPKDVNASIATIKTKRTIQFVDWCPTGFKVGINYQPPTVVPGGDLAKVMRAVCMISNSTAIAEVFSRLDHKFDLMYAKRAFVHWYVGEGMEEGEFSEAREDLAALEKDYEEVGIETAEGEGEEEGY
T2 sequence (P41352 whole entry partner): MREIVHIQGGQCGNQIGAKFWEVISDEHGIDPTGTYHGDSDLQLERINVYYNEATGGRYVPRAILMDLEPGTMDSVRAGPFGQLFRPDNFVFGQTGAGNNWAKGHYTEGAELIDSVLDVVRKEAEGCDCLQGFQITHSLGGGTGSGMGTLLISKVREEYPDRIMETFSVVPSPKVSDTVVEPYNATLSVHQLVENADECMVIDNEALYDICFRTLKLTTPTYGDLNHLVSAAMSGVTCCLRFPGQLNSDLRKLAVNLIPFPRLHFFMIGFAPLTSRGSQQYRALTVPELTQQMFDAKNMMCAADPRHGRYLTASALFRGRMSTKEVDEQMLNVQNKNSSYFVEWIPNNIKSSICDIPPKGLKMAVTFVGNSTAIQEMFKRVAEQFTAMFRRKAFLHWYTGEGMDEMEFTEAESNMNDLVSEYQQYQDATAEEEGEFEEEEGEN
T1 sequence (P41351 whole entry K40R): as the sequence (P41351 whole entry) above, with K40R counted along it
T1 sequence (P41352 whole entry, further chain): as the sequence (P41352 whole entry partner) above

B1: GST-MmMEC-17: recombinant murine MEC-17 expressed in E. coli as a GST fusion (protein)
chain: MEFPFDVDALFPERITVLDQHLRPPARRPGTTTPARVDLQQQIMTIVDELGKASAKAQHLPAPITSALRMQSNRHVIYILKDTSARPAGKGAIIGFLKVGYKKLFVLDDREAHNEVEPLCILDFYIHESVQRHGHGRELFQHMLQKERVEPHQLAIDRPSPKLLKFLNKHYNLETTVPQVNNFVIFEGFFAHQHRPPTSSLRATRHSRAAVADPIPAAPARKLPPKRAEGDIKPYSSSDREFLKVAVEPPWPLNRAPRRATPPAHPPPRSSSLGNSPDRGPLRPFVPEQELLRSLRLCPPHPTARLLLATDPGGSPAQRRRTRGTPWGLVAQSCHYSRHGGFNTSFLGTGNQERKQGEQEAEDRSASEDRVLLLDGSGEEPTQTGAPRAQAPPPQSWTVGGDIMNARVIRNLQERRSTRPW
modifications: left off: a dimerising Fc or GST
notes: recombinant murine MEC-17 expressed in E. coli as a GST fusion
For B1, the “acetylation of R40 axonemes (K40R mutant)” value in assay [1] was “failed to acetylate”. Besides, in assay [2] (highly purified tubulin from MEC17-KO cells), the “K40 acetylation activity on purified tubulin” value is on record as “robust K40 acetylation activity”. The “αTAT activity on MEC17-KO axonemes” value in assay [2] is reported as “robust αTAT activity”.

B2: GFP-Mec17p: crude GFP-Mec17p-enriched fraction obtained from transgenic Tetrahymena (protein)
chain: MFKNQLLSLSLRIQKLRLCRQGNQLKVLQKSINQLLFKTQSIDQILQYLQQKKKTHQSILENQNQHIHSIGLVSQLTNQKINKQKNQKAMEFNFIINKLVQLDQQGLGVYIPRASRSKVSSQQEQQLGQVLNTMGERSAIAQGLKQVITNYDKVQGTDQRVYIVAEGRTCQGFLKVGQKNLFYRDMMGNIKEIKPLCVLDFYVHESCQRQGYGKLLFEYMIQCEQTSPEKLAYDRPSPKLIAFLKKHYNLVKYIAQNNNFVVFDQYFRSDASSQNKQNQNTRSYSQPYSDYSSQIPTNYPQQQQQQSNSKSYPYKQENNIDLMQHSSSRNNKEFLNAGRAILSKEEIYKKDNLSQQNIENTLNNINNSQYSTKSQQQQQYQKDYQLDKYENNWGADKNIKKPPFPGQDRQLDKIQQKIQQTERELDVVNQQIIKQRQNLSQDPLTQNHRAQNVYNTNQFGTSPWAQTGFNYYSTSSSNYGNHYTYYKK
modifications: left off: large carriers
notes: crude GFP-Mec17p-enriched fraction obtained from transgenic Tetrahymena
Take B2: in assay [2], the “αTAT activity on MEC17-KO axonemes” value is on record as “had K40 αTAT activity”.
